The source of these data is PMC5789857.

In this assay the target is TBEV envelope protein (E-protein), strain Hypr, in the purified virion (tick-borne encephalitis virus, strain Hypr) (UniProt Q01299). Description: cryo-EM structure.

Broadly, the stoichiometry N is the number of molecules, sites or subunits per partner or assembly.

In turn, “TBEV envelope protein (E-protein), strain Hypr, in the purified virion (from UniProt Q01299) (natural protein)” gave a stoichiometry N of 2.
